Results on one molecule are retold here after publication PMC1876262.

The test addresses Bovine brain tubulin (bovine) (UniProt Q6B856).
Sequence of UniProt Q6B856 (Q6B856 whole entry, looked up): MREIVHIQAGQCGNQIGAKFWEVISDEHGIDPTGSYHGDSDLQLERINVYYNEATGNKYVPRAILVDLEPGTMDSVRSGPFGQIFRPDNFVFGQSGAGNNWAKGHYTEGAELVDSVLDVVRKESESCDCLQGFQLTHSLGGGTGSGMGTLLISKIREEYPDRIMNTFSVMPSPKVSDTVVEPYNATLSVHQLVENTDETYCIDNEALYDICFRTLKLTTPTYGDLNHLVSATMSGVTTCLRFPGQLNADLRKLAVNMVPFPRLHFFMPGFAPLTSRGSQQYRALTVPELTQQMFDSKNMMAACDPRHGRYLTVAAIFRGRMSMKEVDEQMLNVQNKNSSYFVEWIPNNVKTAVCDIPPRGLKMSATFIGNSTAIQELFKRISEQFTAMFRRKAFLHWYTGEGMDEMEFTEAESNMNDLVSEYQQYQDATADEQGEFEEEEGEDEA

B1: wt human αB crystallin (natural protein)
chain: MDIAIHHPWIRRPFFPFHSPSRLFDQFFGEHLLESDLFPTSTSLSPFYLRPPSFLRAPSWFDTGLSEMRLEKDRFSVNLDVKHFSPEELKVKVLGDVIEVHGKHEERQDEHGFISREFHRKYRIPADVDPLTITSSLSSDGVLTVNGPRKQVSGPERTIPITREEKPAVTAAPKK
Take B1: the decrease of thermal aggregation of tubulin: OD340 at 52°C for 60 min (Figure 4) came to 65%.
